According to US20170305986A1, “NOVEL TGF-ALPHA MUTANT PROTEINS” (NEUROREPAIR, INC., priority 2014, published 2017):

Legend:
EGFR [1] = target: T1, EGFR (Homo sapiens, UniProt P00533); experiment: Cell based (affinity) ELISA: binding of hTGFα to EGFR on A431 cells; conditions: compared to wild type hTGFα
T1 construct: A431 cells, which are known to express high levels of EGFR on their surface; host or cells: A431 cells
Protocol: Binding activity of hTGFα to EGFR was also confirmed by cell based ELISA and FACS analysis using A431 cells, which are known to express high levels of EGFR on their surface. For the cell-based assay, A431 cells (ATCC#CRL1555) were seeded into the wells of a 96 well plate. A 1000 ng/ml solution of human TGFα (hTGFα) was serially diluted (two-fold dilutions), aliquots of each dilution added to the immobilized cells, and the plates incubated to allow binding. (FIG. 3A) After washing, bound hTGFα was detected using biotinylated anti-hTGFα (R&D Systems #BAF239) and Streptavidin conjugated with HRP. TMB was added to each well, the reactions stopped after four minutes, and the samples read as described above in paragraph a). (FIG. 3B) The standard curve was generated using Softmax. (FIG. 3C)
BAP060-hTGFα-B (mature hTGFα, aa 40-89, with PelB signal sequence) wild type and CPE™ mutants were transformed into E. coli BL21 (DE3) competent cells, and recombinant protein expression induced by addition of 1 mM IPTG at 37° C. for 3 hours in 96 well format (1st confirmation) or in 14 ml tubes (2nd confirmation). After three hours, the cells were collected and periplasmic proteins prepared by incubating the cells in OS buffer (200 mM Tris-HCl, pH 7.5, 20% sucrose, 1 mM EDTA) with DNAse, RNAse and lysozyme. After addition of lysis buffer (10 mM Tris, pH 7.5, 50 mM KCl, 1 mM EDTA and 0.1% of Na-deoxycholate) to the cells in OS buffer, the cells were centrifuged and the supernatants, which contained the periplasmic fractions, were transferred to microcentrifuge tubes. The concentration of hTGFα was determined by quantitation ELISA, and 25 ng/ml of hTGFα were incubated with A431 cells (ATCC#CRL1555) immobilized on the plate. Bound hTGFα was detected with biotinylated anti-hTGFα (R&D Systems, #BAF239) and Streptavidin conjugated with HRP. The reactions were stopped by addition of HCl after TMB was added to the wells and read immediately. OD450 nm value of the reactions was measured with a Molecular Device SPECTRAmax. The initial screen identified 94 CPE™ mutants that had 1.5 fold higher binding activity compared to the wild type TGFα in the primary screening. The sequences of these CPE™ mutants are shown below in Table 2, while select characteristics for all of the CPE™ mutants can be found in FIG. 11A.
A first confirmation was performed by re-transforming E. coli BL21 cells with plasmids containing the 94 CPE™ mutants, collected the periplasmic fractions after IPTG induction and performed quantitation ELISA and cell based ELISA. This first confirmation identified 37 CPE™ mutants having a higher binding activity compared to the wild type TGFα . The second confirmation identified 27 CPE™ putative hits that consistently had higher binding activity compared to the wild type TGFα. These 27 CPE™ mutants were then tested in a cell based EGFR phosphorylation assay to confirm the functional activity of the CPE™ mutants. (FIGS. 11B and 12B)
In addition, 15 CPS™ mutants (containing up to 5 mutations) having an increased ability to induce the phosphorylation of EGFR, relative to the wild type hTGFα (FIG. 14), were selected for cell based titration ELISA to confirm their binding activities (FIG. 15). Briefly, BAP060-hTGFα-B (mature hTGFα, aa 40-89, with PelB signal sequence) wild type and CPS™ mutants were transformed into E. coli BL21 (DE3) competent cells. Protein was expressed upon the addition of 1 mM IPTG at 37° C. for 3 hours in 96 well format. Cells were collected after induction and periplasmic proteins prepared by incubating the cells in OS buffer with DNAse, RNAse and lysozyme. Lysis buffer was added to the cells in OS buffer, the cells centrifuged, and the supernatants containing the periplasmic fractions transferred to a clean set of microcentrifuge tubes. Concentration of hTGFα in each sample was determined by quantitation ELISA. […]

[2] = Physical characteristics of mutants (isoelectric point, hydrophobicity); type: physicochemical; conditions: compared to wild type hTGFα
neuronal stem cell = conditions: ICV or intrastriatal infusion over 18 days, rat brain; cited from earlier work
[3] = test system: central nervous system (CNS); conditions: peripheral route, animal model of Parkinson's disease; cited from earlier work
EGFR [4] = target: T1, EGFR; experiment: Cell based EGFR phosphorylation assay in A431 cells; conditions: compared to wild type hTGFα
Protocol: A cell based EGFR phosphorylation assay was set up to determine the binding activity of hTGFα to EGFR using a functional assay. A431 cells were seeded in 96 well formats and were serum starved overnight. The cells were washed in serum free media and incubated with 50 ul of 0, 50, 100 or 200 ng/ml of EGF (FIG. 5A, column 1) or hTGFα (FIG. 5A, column 2) in DMEM at 37° C. for 10 min: The cells were then washed with PBS and lysed. Half of the cell lysate were used to determine the level of total EGFR (FIG. 5C) using Cell Signaling kit #7250 and the other half of the cell lysate were used to determined the level of phosphorylated EGFR (FIG. 5B) using Cell Signaling kit #7240 following vendor's protocols.
EGFR phosphorylation. BAP060-hTGFα -B (mature hTGFα, aa 40-89, with PE1B signal sequence) was transformed into E. coli BL21 (DE3) competent cells. […] Half of the cell lysate were used to determine the level of total EGFR using Cell Signaling kit #7250 and the other half of the cell lysate were used to determined the level of phosphorylated EGFR using Cell Signaling kit #7240 following vendor's protocols.
E. coli BL21 cells were transformed with BAP060-hTGFα -B CPS™ mutants and induced with IPTG at 37° C. The periplasmic fractions after IPTG induction were collected and the expression levels of hTGFα determined by quantitation ELISA, as described above. […]

Substance	Mutant Characteristics: affinity (EGFR [1])	further results
BAP060-Q014G: CPE™ single-substitution mutant of mature hTGFα	Increased affinity,	
BAP060-E027L: CPE™ single-substitution mutant of mature hTGFα	Neutral affinity,	
BAP060-A046Y: CPE™ single-substitution mutant of mature hTGFα	Increased affinity,	
BAP060-A041D: CPE™ single-substitution mutant of mature hTGFα	Neutral affinity,	Mutant Characteristics: PI (isoelectric point) [2]: lower PI; Mutant Characteristics: hydrophobicity [2]: decreased
TGF-α: member of the EGF family that binds the EGF receptor		neuronal stem cell proliferation (neuronal stem cell): induced neuronal stem cell proliferation; abnormal motor behavior [3]: ameliorates abnormal motor behavior; neurogenesis of the central nervous system [3]: promotes neurogenesis of the central nervous system (CNS)
BAP060-S036R: CPE™ single-substitution mutant of mature hTGFα	Increased affinity,	
BAP060-A050W: CPE™ single-substitution mutant of mature hTGFα	Increased affinity,	
BAP060-F017L: CPE™ single-substitution mutant of mature hTGFα	Increased affinity,	Mutant Characteristics: P-EGFR induction (EGFR [4]): P-EGFR induction,
